In patent publication US9889184B2 (priority 2008, dated 2018):

Columns and labels:
Type in all cases: cell-based
[1] = tested on: Fusarium graminearum; conditions: F. graminearum
[2] = tested on: Colletotrichum graminicola; conditions: C. graminicola, 40 h, FIG. 7
[3] = tested on: Fusarium oxysporum f. sp. vasinfectum (Fov); assay: Growth of Fov with NaD1 and proteinase inhibitors (Example 6); conditions: 40 h, FIG. 6
Description: The inhibitory effects of defensin (NaD1) and proteinase inhibitors on the growth of Fusarium oxysporum f. sp. vasinfectum (Fov) (Australian isolate VCG01111 isolated from cotton and provided by Farming Systems Institute, DPI, Queensland, Australia) were measured essentially as described by Broekaert et al, supra 1990. Spores were isolated from sporulating cultures growing in ½ strength potato dextrose broth (PDB). The Fov culture was grown in ½ PDB for 1-2 weeks at room temperature, before spores were separated from hyphal matter by filtration through sterile tissue paper. The concentration of spores in the filtrate was measured using a hemocytometer. NaD1 and the proteinase inhibitors were prepared as described in Example 4. The conditions used for the fungal growth assay were the same as those described in Example 4. After 40h at 25° C. fungal growth was assessed by measuring optical density at 595 nm (A595).

[4] = tested on: Fusarium graminearum; conditions: concentrations up to 18.5 uM in the absence of NaD1

B1: NaCys2: cystatin from Nicotiana alata, bacterially expressed (SEQ ID NO:4) (protein)
chain: MANLGGIREAGGSENSLEINDLARFAVDGHNKKQNALLEFRKVVNVKEQVVAGTMYYITLEATEGGKKKAYEAKVWVKPWQNFKQLEDFKLIGDAASA
modifications: Nicotiana alata (NaCys2)
synergy with the petunia defensin PhD1A on growth inhibition [1]: synergistic effect | synergy with the tomato defensin Tomdef2 on growth inhibition [1]: synergistic effect | synergy with NaD1 on growth inhibition [2]: synergistic effect | synergy with NaD1 on growth inhibition [3]: Less, but significant synergy | effect on hyphal growth [4]: no effect on hyphal growth
